The assay deals with recombinant human CD33 protein (human, UniProt P20138 18-259, limits assumed). Description: ELISA, recombinant human CD33 coated on the plate, antibody as comparator.
Chain of recombinant human CD33 protein (P20138 18-259 limits assumed): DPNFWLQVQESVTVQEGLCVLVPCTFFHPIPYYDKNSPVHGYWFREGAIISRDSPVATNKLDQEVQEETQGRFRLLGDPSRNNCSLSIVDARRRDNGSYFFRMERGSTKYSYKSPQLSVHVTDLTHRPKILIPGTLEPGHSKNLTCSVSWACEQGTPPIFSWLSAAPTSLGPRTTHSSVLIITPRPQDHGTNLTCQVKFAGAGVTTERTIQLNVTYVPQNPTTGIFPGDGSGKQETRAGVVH

B1: anti-CD33 antibody ANTI-CD33 (antibody, human IgG1, kappa, V domains shown)
VH: EVQLVQSGAEVKKPGSSVKVSCKASGYTITDSNIHWVRQAPGQSLEWIGYIYPYNGGTDYNQKFKNRATLTVDNPTNTAYMELSSLRSEDTAFYYCVNGNPWLAYWGQGTLVTVSS
VL: DIQLTQSPSTLSASVGDRVTITCRASESLDNYGIRFLTWFQQKPGKAPKLLMYAASNQGSGVPSRFSGSGSGTEFTLTISSLQPDDFATYYCQQTKEVPWSFGQGTKVEVKR
notes: also called ANTI-CD33 mAb; naked anti-CD33 antibody
As for B1, the binding result is “binds”.

Source of the values: patent US20260137794A1, “LIGAND-DRUG CONJUGATE AND USE THEREOF” (SYSTIMMUNE, INC., priority 2022, published 2026).
